Assay: soluble on expression in E. coli; label from the status in PepcDB or PDB records

Sequence | soluble on expression in E. coli
MSLRLPMGLVAVLALVGTAAHAAPKGAEARMIATVDAEQARTLRFLEVMVNQNSGSRNLEGVRRLRDIVVPEFTALGFTSRWIPMERTGRAGHLVLTHKGRQGAKKLLLIGHLDTVFEPDSPFQTYVLNGEKATGPGVGDDKGGIAVILAAVRAMNAAGTLKGASIEVFLTGDEEEAGSPTEVARADLVAAARAADVALDFEGLSRENGRDMGSIARRSSQSWSLTVEAKSGHSSGVWGANAGDGAIYAAAKIVNAFRTELPEPWLTLNVGLIAGGAEAEVAEDNAHVSAQGKTNIIPGEVIARGDLRTLSPEQNRAAMRKMEEIVGRPYPGVTSARIAFSEGYPPMAPTEGNKALLARLNQVNATLGLPEMQPLDPMKRGAGDISFVAEYIDGLVGLGPHSTGDHAPGETVDVPSIWTQAKRAALLMTRLSAEKSAREGHHHHHH | soluble
MSLRPRVLLVEDSTSLAILYKQYVKDEPYDIFHVETGRDAIQFIERSKPQLIILDLKLPDMSGEDVLDWINQNDIPTSVIIATAHGSVDLAVNLIQKGAEDFLEKPINADRLKTSVALHLKRAKLEDLVENIQSTFDRHNYHGFIGSSLPMQAVYKTIDAVAPTSASVFIVGESGTGKEVCAEAVHRQSDRRDKPFIAINCGAIPRDLMESEIFGHVKGAFTGATTDRKGAATLAHGGTLFLDELCEMELEMQKTLLRFLQTGTYTPLGGTKEMKVDVRIICATNRDPLTEVEEGRFREDLYYRVHVVPIDMPPLRERGSDIVTLAKHFLTTYAKEDKKKFSNIDTEAQHVIKHYEWPGNVRQLQNIIRNIVVLNNDEKVTVAHLPAQLTQKKTQARTVTPVHVEGHHHHHH | soluble
MSLRQFWFTMVKVDGTSMQPNLQNNERVVAFKTSKIKAGSVVVFNAYGLDPNQTDKNAVYVKRVIGMPGDTVRYTSSGKLYVNNKLVKQTYLKNKYQQTTGSFMANSHSKFTGWTLNSLSHDQGWAKSVTNNTVPKGYYFVLGDHRSVSNDGRYWGLVPKSKMIGVVKAWPWQNRKQYINNYQEGHHHHHH | soluble
MSLRQIRTVIQYQTVRYDILPLSPVSRNRLAQVKRKILVLDLDETLIHSHHDGVLRPTVRPGTPPDFILKVVIDKHPVRFFVHKRPHVDFFLEVVSQWYELVVFTASMEIYGSAVADKLDNSRSILKRRYYRQHCTLELGSYIKDLSVVHSDLSSIVILDNSPGAYRSHPDNAIPIKSWFSDPSDTALLNLLPMLDALRFTADVRSVLSRNLHQHRLWEGHHHHHH | not soluble
MSLRRTCVIGAGPSGLAASRVLASRGIPFDCYEAGSGIGGLWRYGNDNGMSGVYASLHANISKESMSFSSLPMPDSYPVFPHHTQVLAYLESYAETFGLHGHIGLRTEVTSVRPVEGGGWEVTRRSRGGAEAETDRYTEVVVANGHHWDPRLPDPAVPGAGVFEGSAVHAHAYRSPEPYAGQRVLVVGMGNSGCEIAAEISRSAARTFLSARAVAHVFPKMLLGRPADHWAVSRAAVLPRFLKDPGMALLLRLARGAPALYGLPEPVRRPLAAHPSTSDELLVQLARGAVTAKPGIRSFGRDSVSFTDGSRETVDAVVYATGYSLSFPFLAPAVFAAPDGRTELYLRTVPPRLPGLFFMGLAQPAGAAFPLLEPQAEWIADLIEGEVLLPTPAEMTRSIARARERHDKVYAPSYRHGIEIDICAYRRALRRELREGHHHHHH | not soluble
MSLRRTRIRFEAWTAENAHRYHSLAHALPQLGARRPTGLLLDEAGRAAIPFLRTGQFIIGLGDPAGSERNCVAAIWRLRDLALQEGCKLAFIQVGQSLMAVYNDLGLTVCPDRTAGTVCCFSEDYRMLRAFLKGEERLARKREGHHHHHH | not soluble
MSLRSIPSALQAKLDSGATTLARCWIVTRRDGVVMGFTDHDRDLTIGGVLCRAATGFTASEATSRFDLAVDGGEISGAFSDDSLSEADLAAGRYDAAGVATWLVDWSDVSLRIMIARGTIGEVRREGAAFTAELRGLADALAQDSGRLFTARCGVDLGDGKCRVDLASSAFRRSGTVTAVEGTSIVAVSGMSGLAAGWFTAGRLNWTGGANAGLAIEVKQHRVVAGVVRLSLWRAMAEPIAIGDSFVVTAGCDKSFTTCRDRFANTSNFRGFPQIPGNDFVVSYPLPGSPDNGNGSKALEGHHHHHH | soluble
MSLRSYLGSISTSKTEVNSMKMHVLKLLIPTMALLLSACASLPPELGNPDDKSVVTQYSAWLERDPATQSPVRMGGVVANISNQKDRTRVELVNLPIDSAGRPNIHQEPQGRFVAYVPGFLDPITYGEGRLLTLYGTTAPSEQGKVGDYEHTYPVMNAQGYHLWRVEERVEVDDIGPYMFPCRGFYCWPRTMPERDGKIIQEVKEGGSHHHHHH | soluble
MSLRVKYFGTDGIRGIFGETLTDELAFKVGKALGEIVGEGKVIVGKDTRVSGDSLEAAISAGLTSMGVDVLLCGILPTPAVALLTRITRSFGVVISASHNPPEYNGIKVLKGGYKIPDEMEAEIEKRLENGSFLTRSVVGRTKSFREGRDMYIGAVLEMFRDLDLTGEMVSLDLANGATTTTAREVFEFLGAKVEVFNDSQDGLLINQGCGATHPRFLAEEMKNGKVGFTFDGDGDRVIAVDEERNVVNGDRIIGILAVGLKEEGRLNSDTVVGTVMTNGGLEDFLKEKGIRLLRTKVGDKYVLEKMLESGANLGGERSGHIIILDRSTTGDGLITALELMRVLKRSGRKLSDFAKEIPDYPQITKNVRRTERMSLENENLRKIVEESTSRGYRVVIRPSGTEPVIRITVEGKDREEIEKIVEEISRVLESEGHHHHHH | soluble
MSLRWLSLNTATVRKQGDLVAIIDACAKHGIRAIDPWRDQVASVGLDRAARAVRDAGLELSGYCRGGMFTSDASRRGEVRDDNRRCVDEAKALGAPCIVLVVGGLPQYSRPGSEPSKDIAAARGQVEEALADMLDYARQAGLPLAIEPLHPAYAADRACVNTTKQALDICDRLDPGRTGMLGVALDVYHIWWDPELMSQIARAGRDRLLAFHVCDWLVPTRDILNDRGMMGDGVIDIKSVRKAVEAQGFAGYSEIEIFSNDWWAKPMDEVLRTCITRHRTVVEGHHHHHH | not soluble
MSLRYKVGEVAARLGLTLRTLKYYEELGLVTPERTDSRYRMYSEADVQRLERIRRMRALGLSLGTIQAISTHPQESDPDGRQVLTQEALHTLESDLSSQLTVLSTRITAAEKELKDARALRRDVQRDLDYVQRRLAGAQVGELLREKDPAEGHHHHHH | not soluble
MSLRYLRFLTAGESHGKGLTAILEGIPANLPLSEEEINHELRRRQRGYGRGGRMKIEKDTAEILSGVRFGKTLGSPIALFIRNRDWENWKEKMAIEGEPSPSVVPFTRPRPGHADLSGGIKYNQRDLRNILERASARETAARVAVGAVCKKFLSEFGIKIGSFVVSIGQKEVEELKDKSYFANPEKLLSYHEKAEDSELRIPFPEKDEEFKTYIDEVKEKGESLGGVFEVFALNVPPGLGSHIQWDRRIDGRIAQAMMSIQAIKGVEIGLGFEAARRFGSQVHDEIGWSEGKGYFRHSNNLGGTEGGITNGMPIVVRVAMKPIPTLKNPLRSVDIETKEEMKAGKERTDIVAVPAASVVGEAMLAIVLADALLEKLGGDFMEEVKKRFEDYVNHVKSF | soluble
MSLSAAEALTRIDRFVCDIKETQYGDGLHVFGAGDHGTGEIDGLIAALSARFVPPGPSGSPYRGRSDVRPTGRNLFTTDPRAVPSRAAYTQGVKLAEELLRKHLQDHGDWPKGLVMDMWGSATIRTAGEEFAMALHLAGLSPRWDDGSDRVSGFDILPLALLNRPRIDVTLRVSGLFRDMFPGLAQLFETAIAKLAERPETAADNPYLVQTPRVFGPRPGSYGLGIGTAMDDYSDEARTAAGEAWLAASSYAIDARGEITYARDALETQLTRADSFVHLQDLPETDLLMAEDYAAHEAGFAAAMQRLGKGGAAALYHLDATRPDQPRARTLTEELARVVRARAANPDWATGMMAHGFRGAAEIAATLDHLAAFAHLAGVVPDHLFDAMFDATLGRDDLVDFMQDANPQALAALRARFDALHRAGLWTSRRNSVLAELGTPAEGHHHHHH | soluble

Source: the DeepSol protein solubility set
